Test results reported in patent publication CN116574180A.

Target: 生物素标记的抗原多肽 (biotin-labelled human collagen IV α1 chain peptide, synthesised by GenScript) (human)
Test: BLI (Fortebio Octet); biotinylated peptide on SA biosensor, antibody at 100-1.56 nM

- Kd: 0.376 nM
B1: 8A12D2-2 (antibody, V domains shown)
VH: EVQLQQSGAELVKPGASVKLSCTASGFNIKDHYMHWVKQRTKQGLEWIGRIDPEDGKTNSAPEFQDKATITSDISSNTVYLQLYSLTSEDTAVYYCAYSNFGFAYWGRGTLVTVSA
VL: DIVMTQAAFSNPVTLGTSTSISCRSSRSLLHSNGITYLYWYLQKPGQSPQLLIYQMSSLASGVPDRFSANGSGTDFTLRISRVEAEDVGVYYCAQKLGLPYTFGGGTKLEIK
